Measurements: patent US10456446B2, “Use of human small leucine zipper protein in osteogenesis procedure” (Korea University Research and Business Foundation, priority 2013, dated 2019)
“Also recorded” adds a separate entry of the source.

Tested on: PPARγ2
Assay: GST / His pull-down and immunoprecipitation of sLZIP with PPARγ2
Assay type: binding
Protocol: 293T cells were obtained and washed with cold PBS. The cells were re-suspended in an IP lysis buffer [25 mM of Tris-HCl (pH 7.4), 150 mM of NaCl, 1 mM of EDTA, 1% NP-40 and 5% glycerol, and a protease inhibitor]. A suspension was centrifuged at 16,000×g for 20 minutes at 4° C. Supernatants were collected and incubated with 0.5 μg of appropriate antibodies and 25 μl of protein A/G-agarose or a GST Sepharose 4B bead for 24 hours at 4° C. A protein complex was centrifuged at 1,000×g with a cold IP lysis buffer for 1 minute and washed five times. The final pellet was re-suspended in 50 μl of an SDS-sample buffer containing 5% β-mercaptoethanol and heated for 10 minutes at 100° C. A protein sample was isolated in SDS-PAGE (8 to 10%) and transferred to nitrocellulose membranes. Co-precipitated proteins were detected according to western blotting using specific antibodies.
In order to examine whether the transcriptional activity of PPARγ2 is regulated by interaction with sLZIP, interaction between sLZIP and PPARγ2 was examined. For this purpose, 293T cells were transfected with GST-sLZIP and Myc-PPARγ2. Cell lysates were obtained and GST pull-down analysis was performed using a glutathione 4B bead. A protein complex was analyzed in SDS-PAGE and then immunoblotted with specific antibodies (FIG. 2A). The 293T cells were transfected with GST-PPARγ2 and Flag-sLZIP, and identified according to GST-pull-down analysis (FIG. 2B). PPARγ2 was translated in vitro by a TNT translation system (Promega). His-sLZIP proteins were expressed in BL21 cells using an IPTG-inducement system. Purified His-sLZIP proteins were subjected to His pull-down analysis. Proteins bound to the bead were analyzed in SDS-PAGE, and then immunoblotted with anti-PPARγ2 and anti-His antibodies (FIG. 2C). GFP-PPARγ2 and Flag-sLZIP constructs were expressed in C3H10T1/2 cells, and analyzed using mouse anti-Flag and Texas Red-labeled anti-mouse antibodies under a fluorescence microscope. The nucleus was stained with DAPI (FIG. 2D).
Activation of many nuclear receptors depends on a supplement of coactivators. Therefore, a domain of sLZIP necessary for binding with PPARγ2 was examined. For this purpose, 293T cells were transfected with GST-full length sLZIP (1-354), N-terminal deletion mutant sLZIP (1-228), C-terminal deletion mutant sLZIP (229-354), CC-terminal deletion mutant sLZIP (297-354) and PPARγ2. Cell lysates were obtained and GST pull-down analysis was performed using a glutathione 4B bead. A protein complex was analyzed in SDS-PAGE, and then immunoblotted with specific antibodies (FIG. 3A). 293T cells were transfected with Flag-full length PPARγ2, full length PPARγ2, N-terminal deletion mutant PPARγ2 (1-310), C-terminal deletion mutants PPARγ2 (139-505) and GST-sLZIP. Cell lysates were obtained and GST pull-down analysis was performed. A protein complex was analyzed in SDS-PAGE, and then immunoblotted with anti-GST and anti-Flag antibodies (FIG. 3B).
For this purpose, 293T cells were transfected with GST-PPARγ2 and Flag-sLZIP and were treated or not treated with 10 nM of RZD for 24 hours. Cell lysates were obtained and GST pull-down analysis (FIG. 5A) and immunoprecipitation (FIG. 5B) were performed using a glutathione 4B bead. A protein complex was analyzed in SDS-PAGE, and immunoblotted with anti-GST and anti-Flag antibodies. GST-PARγ2 and Flag-sLZIP were expressed in the 293T cells, and the cells were treated with 10 nM of RZD according to time of day. The cell lysates were GST pull-down analyzed (FIG. 5C). 293T cells were transfected with GST-HDAC3 and Flag-sLZIP, and treated or not treated with 10 nM of RZD for 24 hours. The cell lysates were GST pull-down analyzed (FIG. 5D). Flag-sLZIP was expressed in the 293T cells, and the cells were treated with 10 nM of RZD for 24 hours. Immunoprecipitation analysis of the cell lysates was performed using anti-NCoR1 antibodies. […]

[1] = GST pull-down, transfected 293T cells

B1: N domains of sLZIP: N-terminal deletion mutant of sLZIP (1-228) (protein)
chain: MELELDAGDQDLLAFLLEESGDLGTAPDEAVRAPLDWALPLSEVPSDWEVDDLLCSLLSPPASLNILSSSNPCLVHHDHTYSLPRETVSMDLESESCRKEGTQMTPQHMEELAEQEIARLVLTDEEKSLLEKEGLILPETLPLTKTEEQILKRVRRKIRNKRSAQESRRKKKVYVGGLESRVLKYTAQNMELQNKVQLLEEQNLSLLDQLRKLQAMVIEISNKTSSSS
modifications: left off: a dimerising Fc or GST
- interaction with PPARγ2 [1]: not interacted with PPARγ2

B2: sLZIP: human small leucine-zipper protein, isoform of LZIP, 354 amino acids, no transmembrane domain, GenBank FJ263669, SEQ ID NO: 1 (protein, listed as Homo sapiens)
chain: MELELDAGDQDLLAFLLEESGDLGTAPDEAVRAPLDWALPLSEVPSDWEVDDLLCSLLSPPASLNILSSSNPCLVHHDHTYSLPRETVSMDLESESCRKEGTQMTPQHMEELAEQEIARLVLTDEEKSLLEKEGLILPETLPLTKTEEQILKRVRRKIRNKRSAQESRRKKKVYVGGLESRVLKYTAQNMELQNKVQLLEEQNLSLLDQLRKLQAMVIEISNKTSSSSMYSSDTRGSLPAEHGVLSRQLRALPSEDPYQLELPALQSEVPKDSTHQWLDGSDCVLQAPGNTSCLLHYMPQAPSAEPPLEWPFPDLFSEPLCRGPILPLQANLTRKGGWLPTGSPSVILQDRYSG
- interaction with PPARγ2 [1]: PPARγ2 interacted with sLZIP
- interaction with PPARγ2 (GST pull-down, transfected 293T cells, listed as wild type sLZIP): interacted with PPARγ2
- direct interaction with PPARγ2 (His pull-down, purified His-sLZIP and in vitro translated PPARγ2): directly bound
- interaction with PPARγ2 (ligand treated (10 nM RZD), GST pull-down or immunoprecipitation): dissociated from sLZIP; also recorded: dissociated from PPARγ2 in a time-dependent manner
- interaction with PPARγ2 (no stimulation with a ligand, GST pull-down): interacted with PPARγ2
